Laboratory results reported in PMC3133606.

Biological target: protective antigen, full-length wild type, nicked (nPA) and assembled into oligomers (Bacillus anthracis)
Test: electron microscopy

## protective antigen, full-length wild type, nicked (nPA) and assembled into oligomers (natural protein)
  fold less octamer with Δ47 LFN than with WT LFN: 10 fold
